Reference: the supplement of paper PMC10065799, “High-throughput profiling of sequence recognition by tyrosine kinases and SH2 domains using bacterial peptide display” (eLife, 2023)

How the values were obtained:
AncSZ = assay: phosphorylation enrichment, bacterial display (enrichment ratio); higher = better substrate or ligand; peptides without Tyr show the background
EPHB1 = EPHB1 (UniProt P54762); assay: as above
EPHB2 = EPHB2 (UniProt P29323); assay: as above
FGFR1 = FGFR1 (UniProt P11362); assay: as above
Chain of FGFR1 (P11362 whole entry, looked up): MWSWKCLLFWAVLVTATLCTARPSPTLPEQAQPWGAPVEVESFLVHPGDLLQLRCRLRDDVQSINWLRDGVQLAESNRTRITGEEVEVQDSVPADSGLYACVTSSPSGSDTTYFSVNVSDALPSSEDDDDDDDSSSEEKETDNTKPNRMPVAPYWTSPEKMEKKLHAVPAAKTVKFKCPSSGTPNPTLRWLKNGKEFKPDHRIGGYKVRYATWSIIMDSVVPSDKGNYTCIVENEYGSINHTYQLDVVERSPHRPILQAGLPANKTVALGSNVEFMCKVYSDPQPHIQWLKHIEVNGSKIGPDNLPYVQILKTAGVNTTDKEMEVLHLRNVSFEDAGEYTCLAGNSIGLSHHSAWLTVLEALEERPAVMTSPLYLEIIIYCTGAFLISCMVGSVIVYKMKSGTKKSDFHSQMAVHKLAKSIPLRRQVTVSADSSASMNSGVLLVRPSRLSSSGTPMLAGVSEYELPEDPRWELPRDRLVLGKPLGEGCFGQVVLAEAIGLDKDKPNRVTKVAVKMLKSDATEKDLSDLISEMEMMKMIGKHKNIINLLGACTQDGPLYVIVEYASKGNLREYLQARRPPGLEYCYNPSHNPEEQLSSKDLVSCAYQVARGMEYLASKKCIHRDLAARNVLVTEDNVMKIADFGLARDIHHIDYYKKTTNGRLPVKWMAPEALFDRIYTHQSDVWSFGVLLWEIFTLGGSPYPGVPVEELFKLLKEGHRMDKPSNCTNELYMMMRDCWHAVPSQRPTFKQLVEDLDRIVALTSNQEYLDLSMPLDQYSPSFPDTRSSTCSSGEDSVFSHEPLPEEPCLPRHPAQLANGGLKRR

FGFR3 = FGFR3 (UniProt P22607); assay: as above
Chain of FGFR3 (P22607 whole entry, looked up): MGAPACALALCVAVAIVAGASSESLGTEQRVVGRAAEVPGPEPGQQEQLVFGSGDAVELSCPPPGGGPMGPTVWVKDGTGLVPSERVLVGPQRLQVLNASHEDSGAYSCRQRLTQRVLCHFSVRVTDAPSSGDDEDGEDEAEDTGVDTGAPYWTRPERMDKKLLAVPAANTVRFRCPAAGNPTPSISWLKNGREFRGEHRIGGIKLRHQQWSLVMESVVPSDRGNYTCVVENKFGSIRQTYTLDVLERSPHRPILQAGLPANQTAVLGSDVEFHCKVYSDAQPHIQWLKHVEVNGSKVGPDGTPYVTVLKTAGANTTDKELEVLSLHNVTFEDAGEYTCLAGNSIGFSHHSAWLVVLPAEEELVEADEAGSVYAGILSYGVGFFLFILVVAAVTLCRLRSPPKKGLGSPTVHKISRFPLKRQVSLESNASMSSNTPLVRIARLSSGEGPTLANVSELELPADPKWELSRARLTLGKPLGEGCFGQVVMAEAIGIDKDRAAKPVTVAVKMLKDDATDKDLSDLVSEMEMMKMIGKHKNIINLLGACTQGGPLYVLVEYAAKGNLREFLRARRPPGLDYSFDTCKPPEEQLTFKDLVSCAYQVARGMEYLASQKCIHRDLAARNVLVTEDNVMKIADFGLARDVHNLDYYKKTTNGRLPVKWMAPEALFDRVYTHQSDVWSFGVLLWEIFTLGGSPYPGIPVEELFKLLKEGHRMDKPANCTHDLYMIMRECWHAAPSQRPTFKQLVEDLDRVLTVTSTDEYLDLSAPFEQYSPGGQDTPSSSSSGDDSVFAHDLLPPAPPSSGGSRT

Fer (mouse) = assay: as above
Fes = Fes (UniProt P07332); assay: as above
Chain of Fes (P07332 whole entry, looked up): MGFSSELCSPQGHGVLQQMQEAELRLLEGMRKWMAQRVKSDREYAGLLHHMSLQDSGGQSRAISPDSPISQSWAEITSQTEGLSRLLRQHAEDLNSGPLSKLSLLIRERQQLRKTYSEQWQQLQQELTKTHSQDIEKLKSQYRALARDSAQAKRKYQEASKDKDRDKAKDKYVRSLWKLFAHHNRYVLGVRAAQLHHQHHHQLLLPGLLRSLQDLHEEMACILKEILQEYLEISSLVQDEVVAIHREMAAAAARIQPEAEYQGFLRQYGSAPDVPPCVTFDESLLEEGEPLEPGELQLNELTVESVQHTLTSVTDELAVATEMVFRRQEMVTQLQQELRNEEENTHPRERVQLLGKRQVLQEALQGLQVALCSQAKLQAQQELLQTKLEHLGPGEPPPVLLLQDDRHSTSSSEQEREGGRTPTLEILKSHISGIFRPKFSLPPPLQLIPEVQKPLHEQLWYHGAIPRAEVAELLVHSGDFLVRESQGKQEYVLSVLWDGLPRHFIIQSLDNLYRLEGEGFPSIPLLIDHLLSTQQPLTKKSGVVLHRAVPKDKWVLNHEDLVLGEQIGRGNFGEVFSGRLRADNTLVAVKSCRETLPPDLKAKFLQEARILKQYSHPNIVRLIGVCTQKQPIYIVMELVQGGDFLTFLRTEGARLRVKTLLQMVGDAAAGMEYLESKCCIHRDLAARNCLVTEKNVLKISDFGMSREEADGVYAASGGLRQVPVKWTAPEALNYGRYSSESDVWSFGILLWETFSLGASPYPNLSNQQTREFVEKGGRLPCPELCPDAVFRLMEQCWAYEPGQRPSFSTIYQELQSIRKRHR

Fyn = Fyn (UniProt P06241); assay: as above
Chain of Fyn (P06241 whole entry, looked up): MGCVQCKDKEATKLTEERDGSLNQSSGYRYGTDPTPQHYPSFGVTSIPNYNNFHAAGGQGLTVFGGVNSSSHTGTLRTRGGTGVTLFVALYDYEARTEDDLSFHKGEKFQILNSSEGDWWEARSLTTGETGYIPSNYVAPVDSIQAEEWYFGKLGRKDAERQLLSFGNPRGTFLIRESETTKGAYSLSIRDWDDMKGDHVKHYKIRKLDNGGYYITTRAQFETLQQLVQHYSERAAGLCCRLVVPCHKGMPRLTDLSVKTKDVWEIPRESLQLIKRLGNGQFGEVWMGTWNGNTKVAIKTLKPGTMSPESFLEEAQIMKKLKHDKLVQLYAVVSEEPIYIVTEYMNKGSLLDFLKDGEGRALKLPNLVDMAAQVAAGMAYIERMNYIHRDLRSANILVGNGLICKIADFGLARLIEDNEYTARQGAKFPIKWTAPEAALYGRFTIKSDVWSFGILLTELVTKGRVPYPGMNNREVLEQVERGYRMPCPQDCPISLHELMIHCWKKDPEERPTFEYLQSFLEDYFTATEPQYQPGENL

Hck = Hck (UniProt P08631); assay: as above
Jak2 = Jak2 (UniProt O60674); assay: as above
MERTK = MERTK (UniProt Q12866); assay: as above
c-Abl (mouse) = assay: as above
c-Src = assay: as above
Grb2 SH2 = Grb2 SH2 (UniProt P62993); assay: SH2 binding enrichment of the phosphorylated peptide, bacterial display (enrichment ratio); higher = better substrate or ligand; peptides without Tyr show the background
SHP2-C SH2 = assay: as above
c-Src SH2 = assay: as above
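Wherever SH2 binding enrichment of the phosphorylated peptide, bacterial display is given: peptide library displayed on the E. coli surface as eCPX fusions, selected cells deep-sequenced, score is each peptide's frequency after selection divided by its frequency in the input.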
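Wherever phosphorylation enrichment, bacterial display is given: 11-residue human phosphosite peptides and single-mutation variants displayed on the E. coli surface, counted by deep sequencing, each peptide's frequency after selection divided by its frequency in the unselected input library; frequency after pTyr selection over input frequency; kinase dosed for 20-30% of maximal phosphorylation in three min.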

Chain of EPHB2 (P29323 whole entry, looked up): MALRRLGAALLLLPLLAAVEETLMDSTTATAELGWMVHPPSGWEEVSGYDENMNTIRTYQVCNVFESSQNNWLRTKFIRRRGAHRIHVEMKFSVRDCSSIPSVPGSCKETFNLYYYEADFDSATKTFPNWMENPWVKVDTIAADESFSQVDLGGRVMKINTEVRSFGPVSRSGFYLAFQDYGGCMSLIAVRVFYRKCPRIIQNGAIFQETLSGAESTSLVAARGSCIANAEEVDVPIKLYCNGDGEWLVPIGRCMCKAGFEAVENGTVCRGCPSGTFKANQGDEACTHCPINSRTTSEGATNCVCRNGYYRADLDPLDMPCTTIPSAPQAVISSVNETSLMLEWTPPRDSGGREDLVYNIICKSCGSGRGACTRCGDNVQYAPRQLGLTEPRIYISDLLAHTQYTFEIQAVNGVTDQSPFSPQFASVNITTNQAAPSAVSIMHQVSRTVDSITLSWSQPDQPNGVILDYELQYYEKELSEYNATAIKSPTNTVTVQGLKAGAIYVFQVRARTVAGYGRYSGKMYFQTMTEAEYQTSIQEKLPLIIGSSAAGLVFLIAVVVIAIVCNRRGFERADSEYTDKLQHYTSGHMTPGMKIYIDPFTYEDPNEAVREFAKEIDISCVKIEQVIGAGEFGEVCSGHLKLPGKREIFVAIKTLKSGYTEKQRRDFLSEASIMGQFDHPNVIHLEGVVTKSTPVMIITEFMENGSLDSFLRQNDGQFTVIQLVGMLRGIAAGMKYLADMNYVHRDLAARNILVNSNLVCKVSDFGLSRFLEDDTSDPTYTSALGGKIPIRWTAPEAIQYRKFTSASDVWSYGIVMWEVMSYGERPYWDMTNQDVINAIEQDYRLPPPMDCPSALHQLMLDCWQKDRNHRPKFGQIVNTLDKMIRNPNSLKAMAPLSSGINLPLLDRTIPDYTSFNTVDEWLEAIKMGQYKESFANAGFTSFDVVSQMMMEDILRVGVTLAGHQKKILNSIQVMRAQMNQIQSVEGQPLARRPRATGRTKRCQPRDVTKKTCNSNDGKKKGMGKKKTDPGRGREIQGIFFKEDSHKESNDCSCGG
Chain of EPHB1 (P54762 whole entry, looked up): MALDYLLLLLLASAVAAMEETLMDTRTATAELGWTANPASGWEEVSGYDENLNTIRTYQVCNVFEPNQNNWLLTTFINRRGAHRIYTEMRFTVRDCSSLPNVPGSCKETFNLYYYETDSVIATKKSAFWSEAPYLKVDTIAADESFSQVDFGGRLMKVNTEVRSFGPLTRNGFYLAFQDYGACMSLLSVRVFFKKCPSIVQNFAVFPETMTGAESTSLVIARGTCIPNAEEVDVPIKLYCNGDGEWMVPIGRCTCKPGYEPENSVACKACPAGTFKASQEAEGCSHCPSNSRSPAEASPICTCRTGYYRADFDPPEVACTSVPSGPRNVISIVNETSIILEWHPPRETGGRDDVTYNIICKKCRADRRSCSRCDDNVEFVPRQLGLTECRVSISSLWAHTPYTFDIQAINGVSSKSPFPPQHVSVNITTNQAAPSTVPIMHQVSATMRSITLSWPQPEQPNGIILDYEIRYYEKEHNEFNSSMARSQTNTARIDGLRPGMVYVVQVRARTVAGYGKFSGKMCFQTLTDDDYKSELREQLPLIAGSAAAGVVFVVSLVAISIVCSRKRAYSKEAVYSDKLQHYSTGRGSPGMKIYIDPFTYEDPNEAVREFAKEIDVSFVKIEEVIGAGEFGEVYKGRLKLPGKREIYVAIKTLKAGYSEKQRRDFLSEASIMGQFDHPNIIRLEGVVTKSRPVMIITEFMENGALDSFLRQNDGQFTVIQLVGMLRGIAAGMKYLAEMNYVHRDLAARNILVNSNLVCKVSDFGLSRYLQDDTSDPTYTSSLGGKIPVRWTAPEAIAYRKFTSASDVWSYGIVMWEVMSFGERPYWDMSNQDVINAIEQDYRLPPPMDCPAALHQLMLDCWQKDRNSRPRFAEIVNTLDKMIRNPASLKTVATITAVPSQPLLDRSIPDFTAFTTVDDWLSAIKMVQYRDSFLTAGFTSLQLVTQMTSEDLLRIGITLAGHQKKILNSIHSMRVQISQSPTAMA

Sequence | SH2 binding enrichment (Grb2 SH2) | SH2 binding enrichment (SHP2-C SH2) | SH2 binding enrichment (c-Src SH2) | phosphorylation enrichment (AncSZ) | phosphorylation enrichment (EPHB1) | phosphorylation enrichment (EPHB2) | phosphorylation enrichment (FGFR1) | phosphorylation enrichment (FGFR3) | phosphorylation enrichment (Fer (mouse)) | phosphorylation enrichment (Fes) | phosphorylation enrichment (Fyn) | phosphorylation enrichment (Hck) | phosphorylation enrichment (Jak2) | phosphorylation enrichment (MERTK) | phosphorylation enrichment (c-Abl (mouse)) | phosphorylation enrichment (c-Src)
KLRMESLSLMH [NCKIPSD_Y660_Y660S] | 1.15 | 0.923 | 0.746 | 0.658 | 0.423 | 0.483 | 0.453 | 0.476 | 0.388 | 0.782 | 0.45 | 0.415 | 0.644 | 0.436 | 0.508 | 0.457
KNEKVYTRHGV [FLOT1_Y56_S52N] | 0.998 | 0.749 | 0.585 | 0.514 | 0.243 | 0.33 | 0.352 | 0.356 | 0.316 | 0.487 | 0.355 | 0.344 | 0.392 | 0.375 | 0.435 | 0.357
KPGVNYYFQVS | 1.01 | 2 | 1.3 | 1.22 | 0.699 | 0.602 | 2.49 | 2.05 | 0.522 | 1.35 | 0.573 | 0.526 | 1.44 | 0.873 | 0.895 | 0.5
KPIETYFSKNY [PLP1_Y50_L46P] | 0.851 | 0.654 | 0.599 | 0.595 | 0.392 | 0.408 | 0.466 | 0.597 | 0.4 | 0.603 | 0.448 | 0.45 | 0.534 | 0.466 | 0.473 | 0.452
KPRKLYTIKKP [BRD2_Y715_P714L] | 1.07 | 1.19 | 0.972 | 0.608 | 0.374 | 0.444 | 0.328 | 0.427 | 0.413 | 0.496 | 0.375 | 0.452 | 0.532 | 0.408 | 0.456 | 0.442
KPRKPYTIKKP [BRD2_Y715] | 1.85 | 1.73 | 1.9 | 1.28 | 1.03 | 0.765 | 0.864 | 2.2 | 1.19 | 1.94 | 0.608 | 0.924 | 2.95 | 0.644 | 1.98 | 0.75

The next lines start with results.

SH2 binding enrichment (Grb2 SH2) | SH2 binding enrichment (SHP2-C SH2) | SH2 binding enrichment (c-Src SH2) | Sequence | phosphorylation enrichment (AncSZ) | phosphorylation enrichment (EPHB1) | phosphorylation enrichment (EPHB2) | phosphorylation enrichment (FGFR1) | phosphorylation enrichment (FGFR3) | phosphorylation enrichment (Fer (mouse)) | phosphorylation enrichment (Fes) | phosphorylation enrichment (Fyn) | phosphorylation enrichment (Hck) | phosphorylation enrichment (Jak2) | phosphorylation enrichment (MERTK) | phosphorylation enrichment (c-Abl (mouse)) | phosphorylation enrichment (c-Src)
1.29 | 0.826 | 1.11 | KMMGRYEMYAR [UPB1_Y362_T359M] | 0.711 | 0.374 | 0.551 | 0.5 | 0.529 | 0.302 | 0.711 | 0.333 | 0.51 | 0.966 | 0.543 | 0.367 | 0.414
0.921 | 0.7 | 0.523 | KNRDVSSSDYF [USP24_Y2134_Y2134S] | 0.921 | 0.476 | 0.447 | 0.523 | 0.521 | 0.363 | 0.653 | 0.476 | 0.402 | 0.578 | 0.442 | 0.61 | 0.543
